# Laboratory results taken from US20260137799A1, “ANTI-MUC1* ANTIBODY DRUG COMPLEXES AND USES THEREOF” (Minerva Biotechnologies Corporation, priority 2023, published 2026).
# Read-outs that look alike come from different tables or passages of the source.
# B1: C2-MC-VA-PAB-exatecan (antibody, mouse IgG1, kappa)
# VH: EVQLEESGGGLVKPGGSLKLSCAASGFTFSGYAMSWVRQTPEKRLEWVATISSGGTYIYYPDSVKGRFTISRDNAKNTLYLQMSSLRSEDTAMYYCARLGGDNYYEYFDVWGAGTTVTVSSAKTTPPSVYAKTTPPSVYPLAPGSAAQTNSMVTLGCLVKGYFPEPVTVTWNSGSLSSGVHTFPAVLQSDLYTLSSSVTVPSSTWPSETVTCNVAHPASSTKVDKKIVPRDCGCKPCICTVPEVSSVFIFPPKPKDVLTITLTPKVTCVVVDISKDDPEVQFSWFVDDVEVHTAQTQPREEQFNSTFRSVSELPIMHQDWLNGKEFKCRVNSAAFPAPIEKTISKTKGRPKAPQVYTIPPPKEQMAKDKVSLTCMITDFFPEDITVEWQWNGQPAENYKNTQPIMDTDGSYFVYSKLNVQKSNWEAGNTFTCSVLHEGLHNHHTEKSLSHSPGK
# VL: DIVITQSTASLGVSLGQRATISCRASKSVSTSGYSYMHWYQQRPGQPPKLLIYLASNLESGVPARFSGSGSGTDFTLNIHPVEEEDAATYYCQHSRELPFTFGGGTKLEIKRADAAPTVSADAAPTVSIFPPSSEQLTSGGASVVCFLNNFYPKDINVKWKIDGSERQNGVLNSWTDQDSKDSTYSMSSTLTLTKDEYERHNSYTCEATHKTSTSPIVKSFNRNEC
# modifications: MC-VA-PAB-exatecan on reduced cysteine thiols of the antibody, sites not stated; MC-VA-PAB-exatecan on reduced cysteine thiols of the antibody, sites not stated; DAR 5.1
# B2: C2 MC-PEG8-VA-PAB exatecan (conjugate, listed as Mus sp.)
# heavy: B1 VH
# light: B1 VL
# modifications: MC-PEG8-VA-PAB-exatecan
# notes: ADC: antibody C2 conjugated via MC-PEG8-VA-PAB linker to exatecan
# Legend:
# [1] = tested on: breast cancer, pancreatic cancer, and lung cancer cell lines; assay: Cytotoxicity of ADCs with additional linkers and toxins (FIGS. 30-31); type: cell-based; details: breast cancer, pancreatic cancer, and lung cancer cells
# Description: FIG. 30 is a table showing cytotoxicity of the indicated MUC1* ADCs against indicated cancer cells. IC50 values were determined from xCELLigence data. FIG. 30 discloses “GGFG” as SEQ ID NO: 160, “GGGG” as SEQ ID NO: 161, “GGVA” as SEQ ID NO: 162, “GGVG” as SEQ ID NO: 163.
# FIG. 31 is a table showing cytotoxicity of the indicated MUC1* ADCs against indicated cancer cells. IC50 values were determined from PrestoBlue data.
# An anti-MUC1* antibody was conjugated to several toxins via a number of different linkers (compounds VIII-XXII).
# [2] = tested on: H2110-wt lung cancer cell line; assay: xCELLigence impedance cytotoxicity, H2110; type: cell-based, human; details: Example 9 (FIGS. 35-36); read-out: IC50, lung cancer H2110-wt cells
# Description: (§1) An xCELLigence RTCA MP Instrument (Agilent) was used to assess real-time killing of target cancer cells). In the xCELLigence system, target cancer cells, which are adherent, are plated onto electrode array 96-well plates. Adherent cells insulate the electrode and increase the impedance. The number of adherent cancer cells is directly proportional to impedance. […] Therefore, increasing impedance reflects the growth of the cancer cells and decreasing impedance reflects the killing of the cancer cells.
# (§2) Target Cancer cells (Table 9) were seeded onto a multi-electrode well plate at a density of 5000 cells/well (100 μL of a 50,000 cells/mL stock) and incubated for 24 hr in a 37° C./5% CO2 incubator. ADCs were prepared as a 2× solution in corresponding growth media and 100 μL of each concentration was added to target cells. As a positive control (100% cell killing) cells were treated with either 1% triton or 1 μM Taxol instead of ADC. After 40-120 hours incubation in a 37° C./5% CO2 incubator cell killing was assessed. In this assay, impedance is measured in real-time. When the adherent cancer cells are killed and come off the electrode surface, impedance (insulation) decreases.
# (§3) To directly compare the C2 and 3C2B1 anti-MUC1* antibodies as ADC targeting domains, a panel of MUC1* positive cancer cell lines representing different cancer types were treated with C2-deruxtecan versus 3C2B1-deruxtecan (FIG. 35) or C2-MC-VA-PAB-exatecan versus 3C2B1-MC-VA-PAB-exatecan (FIG. 36). In some cases, the cancer cells were engineered to express high levels of MUC1*45.
# NCI-H1975 = assay: xCELLigence impedance cytotoxicity, NCI-H1975; type: cell-based, human
# Description: as §1, §2
# [3] = tested on: CFPAC1-wt pancreatic cancer cell line; assay: xCELLigence impedance cytotoxicity, CFPAC1; type: cell-based, human; details: Example 9 (FIGS. 35-36); read-out: IC50, CFPAC1-wt pancreatic cancer cells
# Description: as §1, §2, §3
# [4] = tested on: MUC1* negative HEK-293-TN cells; assay: Bystander killing of non-target cells; type: cell-based
# Description: The cell population was doped with H1975-MUC1*45-GFP cells as indicated. FIGS. 31A1-31A20 show the effect of C2-MC-GGFG-AM-DXd (SEQ ID NO: 160) on the non-target cells. […] FIGS. 31C1-31C20 show the effect of C2-MC-VA-PAB-exatecan on the non-target cells.
# FIGS. 33A-33H show graphs of the integrated pixel density of non-target cancer cells as a function of doping cell population with cells expressing high amounts of MUC1*45. FIGS. 33A-33D show the effect when the cells were treated with C2-MC-GGFG-AM-DXd (SEQ ID NO: 160). FIGS. 33E-33H show the effect when the cells were treated with C2-MC-VA-PAB-exatecan.
# In another experiment, we investigated the killing of off-target cells (MUC1* negative HEK-293-TN cells) as well as low antigen expressing target cells (H1975 lung cancer) due to a “bystander” effect (FIGS. 32A1-32D20, FIGS. 33A-33H and FIGS. 34A-34H). To assess the killing of non-target cells adjacent to cells with high MUC1* expression, we doped non-target cells expressing an mCherry marker with varying percentages of target cells that express GFP. 56 nM C2-MC-VA-PAB-exatecan killed nearly all the neighboring non-target cells when the cell population was doped with 30% of the high antigen expressing target cells (FIG. 32C17). […]
# T47D-MUC1* [5] = assay: xCELLigence impedance cytotoxicity, T47D-MUC1*; type: cell-based, human
# Description: as §1, §2
# [6] = tested on: low MUC1* expressing, mCherry H1975 lung cancer cells; assay: Bystander killing of low antigen expressing cancer cells; type: cell-based, human; details: 56 nM ADC; population contained 30% high MUC1* expressing H1975-MUC1*-GFP cells
# T47D [7] = assay: xCELLigence impedance cytotoxicity, T47D; type: cell-based, human
# Procedure, shortened: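 Adherent target cells plated at 5000/well on electrode plates were grown 24 h, then exposed to serially diluted ADCs in growth medium at 37° C/5% CO2. Killing was followed as real-time impedance loss over 40-120 h, normalized to 1% triton or 1 μM Taxol as 100% kill.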
# MUC1*45 = MUC1*45 (UniProt P15941 1110-1255); assay: cell-based or functional assay
# T47D [8] = assay: PrestoBlue live/dead cell assay, T47D; type: cell-based, human; details: Presto Blue; 72-120 hour incubation
# Description: (§4) Another method of measuring the killing activity of ADCs against target cancer cells is to use the PrestoBlue live/dead cell assay (ThermoFisher). Target cancer cells were seeded in a black-walled, clear-bottom 96-well tissue culture plate at a density of 5000 cells/well (100 μL of a 50,000 cells/mL stock) and incubated overnight in a 37° C./5% CO2 incubator. ADCs were prepared as a 2× solution in corresponding cancer cell growth media and 100 μL of each concentration was added to target cancer cells. As a positive control (100% killing) cancer cells were treated with 1 μM Taxol instead of ADC. After 72 hour-120 hour incubation in a 37° C./5% CO2 incubator, cell viability was measure by fluorescence using the PrestoBlue HS assay (ThermoFisher). Briefly, after the incubation period, 20 μL of PrestoBlue HS solution was added. Fluorescence (Ex 560 nm/Em 590 nm) was recorded after 30-90 min. incubation using a Tecan plate reader. Percentage viability was determined by PrestoBlue HS staining and normalized to 1 μM taxol treated cells.
# (§5) The normalized fluorescence values were imported into the graph program, Sigma Plot, data plotted as ADC concentration versus normalized fluorescence signal and curve fitted using a four-parameter Hill equation: f=y0+a*x^b/(c^b+x^b) to calculate IC50 values. IC50 values for the ADCs were generally consistent between the xCELLigence and Presto Blue assays.
# HPAFII-MUC1* = assay: PrestoBlue live/dead cell assay, HPAFII-MUC1*; type: cell-based, human; details: Presto Blue; 72-120 hour incubation
# Description: as §4, §5
# T47D-MUC1* [9] = assay: PrestoBlue live/dead cell assay, T47D-MUC1*; type: cell-based, human; details: Presto Blue; 72-120 hour incubation
# Description: as §4, §5
# T47D-MUC1* 15% [10] = assay: xCELLigence impedance cytotoxicity, T47D-MUC1* 15%; type: cell-based, human; details: 40-120 hours incubation
# Description: as §1, §2
# T47D xenograft tumors = assay: T47D breast cancer xenograft; type: in vivo, NOD/SCID mice; details: intraperitoneal; MMAE ADCs 5-10 mg/kg Days 7, 14, 20; deruxtecan/exatecan ADCs 20 mg/kg weekly x7
# Description: (§6) For breast cancer xenografts, female NOD/SCID mice (weight 18-22 g, 6-8 weeks old, Charles River Laboratories) previously implanted with a 90-day release estrogen pellet (Innovative Research Laboratories) were subcutaneously injected under isoflurane anesthesia (ISOTHESIA, 250 ml (HENRY SCHEIN, NDC: 11695-6776-2) with one million luciferase-positive T47D breast cancer cells expressing low levels of MUC1*(ATCC) or one million luciferase-positive T47D-MUC1* cells overproducing MUC1* using a BD 26G Insulin Syringes with Detachable Needle (Fisher cat: 329652) or BD 28G Lo-Dose U-100 Insulin Syringes (Fisher cat: 329461).
# (§7) Tumor volume was measured from bioluminescence images acquired with a Xenogen IVIS-Spectrum system (Perkin Elmer). Mice were injected […] into the scruff of the neck with 150 ul, 30 mg/mL, D-Luciferin (XenoLight™ D-Luciferin Potassium Salt; PerkinElmer P/N 122799), placed under isoflurane anesthesia, and photographed within 10 minutes of the Leciferin injection. Data was expressed graphically as Radiance (photons/sec) as a function of days post-tumor implantation.
# (§8) Tumor mass was determined from tumors excised from mice receiving T47D cells on Day 95 and mice receiving T47D-MUC1* cells on Day 96. […]
# [11] = tested on: T47D-MUC1* xenograft tumors; assay: T47D-MUC1* breast cancer xenograft; type: in vivo, NOD/SCID mice; details: intraperitoneal; MMAE ADCs 5-10 mg/kg Days 7, 14, 20; deruxtecan/exatecan ADCs 20 mg/kg weekly x7
# Description: as §6, §7, §8
# HPAF-II = assay: xCELLigence impedance cytotoxicity, HPAF-II; type: cell-based, human; details: xCELLigence; 40-120 hours incubation; read-out: IC50, HPAF-II
# Description: as §1, §2
# DU-145 [12] = assay: PrestoBlue live/dead cell assay, DU-145; type: cell-based, human; details: Presto Blue; 72-120 hour incubation
# Description: as §4, §5
# HPAF-II MUC1* = assay: xCELLigence impedance cytotoxicity, HPAF-II MUC1*; type: cell-based, human; details: xCELLigence; 40-120 hours incubation; read-out: IC50, HPAF-II MUC1*
# Description: as §1, §2
# HPAFII = assay: PrestoBlue live/dead cell assay, HPAFII; type: cell-based, human; details: Presto Blue; 72-120 hour incubation
# Description: as §4, §5
# T47D-MUC1* 15% [13] = assay: PrestoBlue live/dead cell assay, T47D-MUC1* 15%; type: cell-based, human; details: Presto Blue; 72-120 hour incubation
# Description: as §4, §5
# H1975 = assay: PrestoBlue live/dead cell assay, H1975; type: cell-based, human; details: Presto Blue; 72-120 hour incubation
# Description: as §4, §5
# DU-145 [14] = assay: xCELLigence impedance cytotoxicity, DU-145; type: cell-based, human; details: 40-120 hours incubation
# Description: as §1, §2
molecule,measurement,setting,value
B1,activity compared to deruxtecan ADC,[1],enhanced activity
same,IC50,[2],60 nM
same,IC50,"NCI-H1975; Example 9 (FIGS. 35-36), read-out: IC50 for killing of H1975-wt cells",117 nM
same,IC50,[3],51 nM
same,killing of neighboring non-target cells,"[4]; 56 nM ADC, population doped with 30% H1975-MUC1*45-GFP target cells, 120 hours",nearly all
same,non-specific cytotoxicity,[4]; pure populations of non-target HEK-293-TN cells,limited amount of non-specific cytotoxicity
same,IC50,"T47D-MUC1* [5]; Example 9 (FIGS. 35-36), read-out: IC50, T47D cells engineered to express more MUC1*45",4 nM
same,low MUC1* expressing cancer cells killed,[6],about 75%
same,IC50,"T47D [7]; Example 9 (FIGS. 35-36), average over batches for DXd ADCs, read-out: IC50 for killing of breast cancer T47D-wt cells",44 nM
same,"IC50, killing of H1975 cells engineered to express MUC1*45 (xCELLigence)",MUC1*45,9 nM
B2,IC50,T47D [8],153 nM
same,IC50,HPAFII-MUC1*,62 nM
same,IC50,T47D-MUC1* [9],8 nM
same,IC50,T47D-MUC1* 15% [10],20 nM
same,growth of T47D xenograft tumors,T47D xenograft tumors,inhibit the growth
same,IC50,"NCI-H1975; xCELLigence, 40-120 hours incubation, read-out: IC50, NCI-H1975",207 nM
same,growth of T47D-MUC1* xenograft tumors,[11],inhibit the growth
same,IC50,HPAF-II,86 nM
same,IC50,"T47D-MUC1* [5]; xCELLigence, 40-120 hours incubation, read-out: IC50, T47D-MUC1*",6.2 nM
same,IC50,DU-145 [12],160 nM
same,IC50,HPAF-II MUC1*,72 nM
same,IC50,HPAFII,180 nM
same,IC50,T47D-MUC1* 15% [13],25 nM
same,IC50,H1975,19 nM
same,IC50,"T47D [7]; xCELLigence, 40-120 hours incubation, read-out: IC50, T47D",112 nM
same,IC50,DU-145 [14],163 nM
